Data: patent US7988958B2, “Enterococcus and Streptococcus strains and bacteriocins” (The United States of America as represented by the …, priority 2005, dated 2011)
“And” between values parts separate entries of the source, which are not always exact repeats. Identical values can stand only once. Like-named read-outs stand apart in the source and are kept apart here.

Columns and labels:
[1] = Isoelectric focusing (pI); format: physicochemical; conditions: for pI of the band with antimicrobial activity: pure bacteriocin, gel overlaid with Campylobacter jejuni
C. jejuni NCTC 11168 [2] = assay: Influence of enzymes on bacteriocin activity (spot test); format: physicochemical, Campylobacter jejuni
S. enteritidis 204 [3] = assay: SDS-PAGE gel overlaid with test strain; format: cell-based; conditions: for Inhibiting Activity measured by SDS-PAGE: CAP, active band; for Inhibiting Activity SDS-PAGE: purified bacteriocin
Procedure: (§1) CAPs and bacteriocins were electrophoresed in about 15% […] gel weight, about 1% SDS (9×12 cm) in Tri-glycine buffer. After electrophoresis at about 100 mA for approximately 4 hours, gels were fixed with a solution containing approximately 15% ethanol and approximately 1% acetic acid. The gels were then washed with distilled water for approximately 4 hours. To determine molecular weights of protein fractions, the gel was stained with a solution containing approximately 0.21% Coomassi Blue G-250, about 40% ethanol, and about 7% acetic acid. Washed gels were tested against three target bacteria, C. jejuni NCTC 11168, E. coli 0157:H7 904, and S. enteritidis 204 by the method of Bhunia et al. (Journal of Industrial Microbiology, Volume 2, 319-322, 1987; herein incorporated by reference). The gels were placed in Petri dishes, covered with 5% blood-semi-solid Campylobacter agar (about 0.75%) or semi-solid MPA, and seeded with cells of the test strains. Plates containing C. jejuni were incubated at about 42° C. for approximately 48 hours under microaerobic conditions, E. coli 0157:H7 and S. enteriditidis at about 37° C. for approximately 24 hours. Assessment was based on visualization of zones of the inhibited growth of the test strains in the presence of bacteriocins.

E. coli O157:H7 904 [4] = assay: SDS-PAGE gel overlaid with test strain; format: cell-based; conditions: for Inhibiting Activity measured by SDS-PAGE: CAP, active band, E. coli O157:H7 904; for Inhibiting Activity SDS-PAGE: purified bacteriocin, E. coli O157:H7
Procedure: as §1

S. enteritidis 204 [5] = assay: Spot test; format: cell-based; conditions: for Inhibiting activity in Spot Test: crude antimicrobial preparation (CAP); for Inhibiting Activity, Spot Test: purified bacteriocin
Campylobacter jejuni = assay: Antagonistic activity of products purified by Methods A and B; format: cell-based; set-up: Specific Activity UE/ml: unit not given here
E. coli O157:H7 lab. 39 = assay: MIC by spot test; format: cell-based
Klebsiella pneumoniae = assay: MIC by spot test; format: cell-based
E. coli O157:H7 OD-3 = assay: MIC by spot test; format: cell-based
S. choleraesuis 434/4 = assay: MIC by spot test; format: cell-based
S. choleraesuis 370 = assay: MIC by spot test; format: cell-based
C. jejuni NCTC 11168 [6] = assay: Thermostability and effect of pH on bacteriocin activity (spot test); format: physicochemical, Campylobacter jejuni; conditions: for Antimicrobial activity after treatment: heating to about 90° C.
Sh. dysenteriae = assay: MIC by spot test; format: cell-based
C. jejuni NCTC 11168 [7] = assay: Spot test; format: cell-based, Campylobacter jejuni; conditions: for Inhibiting activity in Spot Test: crude antimicrobial preparation (CAP), C. jejuni NCTC 11168; for Inhibiting Activity, Spot Test: purified bacteriocin, C. jejuni
E. coli C600 = assay: MIC by spot test; format: cell-based
S. enteritidis 204 [8] = assay: IEF gel tested for growth inhibition of test strain; format: cell-based; conditions: for Inhibiting Activity measured by IEF: CAP, active band; for Inhibiting Activity IEF: purified bacteriocin
Procedure: as §1
(§2) Specimens of bacteriocins were placed on IEF gels (pH approximately 4.4-10.0) (Novex, San Diego, Calif.). The gels were run at about 100V for about 1 hour, 200V for about 2 hour, and 500V for about 30 minutes in XCM II™ Mini-Cell (Novex). Gels were washed with distilled water for about 4 hours without fixation followed by staining with Coomassie Blue G-250 to determine isoelectric points (pI) of the bacteriocins and their ability to inhibit the growth of the test strains as presented in FIGS. 1 and 2 and in Table 2.

E. coli O157:H7 904 [9] = assay: as above; format: cell-based; conditions: for Inhibiting Activity measured by IEF: CAP, active band, E. coli O157:H7 904; for Inhibiting Activity IEF: purified bacteriocin, E. coli O157:H7
Procedure: as §1, §2

S. typhimurium 383/60 = assay: MIC by spot test; format: cell-based
C. jejuni L4 = assay: MIC by spot test; format: cell-based
Morganella morganii = assay: MIC by spot test; format: cell-based
C. jejuni = assay: Activity of bacteriocin preparations from culture with and without inducer strain (arbitrary units); format: cell-based, Campylobacter jejuni
C. jejuni NCTC 11168 [10] = assay: IEF gel tested for growth inhibition of test strain; format: cell-based, Campylobacter jejuni; conditions: for Inhibiting Activity measured by IEF: CAP, active band, C. jejuni NCTC 11168; for Inhibiting Activity IEF: purified bacteriocin, C. jejuni
Procedure: as §1, §2

E. coli O157:H7 Y-63 = assay: MIC by spot test; format: cell-based
Citrobacter freundi = assay: MIC by spot test; format: cell-based
Y. pseudotuberculosis = format: cell-based
[11] = tested on: Pseudomonas aeruginosa 25583; assay: MIC by spot test; format: cell-based
E. coli O157:H7 G-3 = assay: MIC by spot test; format: cell-based
S. gallinarum pullorum = assay: MIC by spot test; format: cell-based
Staphylococcus aureus = assay: MIC by spot test; format: cell-based
C. jejuni NCTC 11168 [12] = assay: SDS-PAGE gel overlaid with test strain; format: cell-based, Campylobacter jejuni; conditions: for Inhibiting Activity measured by SDS-PAGE: CAP, active band, C. jejuni NCTC 11168; for Inhibiting Activity SDS-PAGE: purified bacteriocin, C. jejuni
Procedure: as §1

S. enteritidis 204 [13] = assay: MIC by spot test; format: cell-based
[14] = cultivation with inducer strain
[15] = cultivation without inducer strain

Bacteriocin 50-52: bacteriocin produced by Enterococcus durans/faecium/hirae NRRL B-30746 (strain 50-52); amino acid sequence SEQ ID NO 1 (TTKNYGNGVCNSVNWCQCGNVWASCNLATGCAAWLCKLA; listed as Enterococcus faecium)
IEF (pI) [1, 14]: 8.4 | IEF (pI) [1, 15]: 8.4 | IEF (pI) ([1]; isolated by Method A): 8.4 | IEF (pI) ([1]; isolated by Method B): 8.4 | pI of the band with antimicrobial activity [1]: about 8.4 | Antimicrobial activity after treatment (C. jejuni NCTC 11168 [2]; treated with beta-chymotrypsin): lost their antimicrobial activity | Antimicrobial activity after treatment (C. jejuni NCTC 11168 [2]; treated with lipase): retained it | Antimicrobial activity after treatment (C. jejuni NCTC 11168 [2]; treated with lysozyme): retained it | Antimicrobial activity after treatment (C. jejuni NCTC 11168 [2]; treated with papain): lost their antimicrobial activity | Antimicrobial activity after treatment (C. jejuni NCTC 11168 [2]; treated with proteinase K): lost their antimicrobial activity | Inhibiting Activity measured by SDS-PAGE (S. enteritidis 204 [3]): M.W. 3.9 kDa | Inhibiting Activity SDS-PAGE (S. enteritidis 204 [3]): +Band 1 | Inhibiting Activity measured by SDS-PAGE (E. coli O157:H7 904 [4]): M.W. 3.9 kDa | Inhibiting Activity SDS-PAGE (E. coli O157:H7 904 [4]): +Band 1 | Inhibiting activity in Spot Test (S. enteritidis 204 [5]): 12,800 AU/ml | Inhibiting Activity, Spot Test (S. enteritidis 204 [5]): 12,800 AU/ml | Activity UE/ml (Campylobacter jejuni; isolated by Method A): 6,400 UE/ml | Specific Activity UE/ml (Campylobacter jejuni; isolated by Method A): 85,333 | Activity UE/ml (Campylobacter jejuni; isolated by Method B): 12,800 UE/ml | Specific Activity UE/ml (Campylobacter jejuni; isolated by Method B): 320,000 | MICs (E. coli O157:H7 lab. 39): 0.1 µg/mL | MICs (Klebsiella pneumoniae): 0.2 µg/mL | MICs (E. coli O157:H7 OD-3): 0.1 µg/mL | MICs (S. choleraesuis 434/4): 0.1 µg/mL | MICs (S. choleraesuis 370): 0.1 µg/mL | Stability at different values of pH (C. jejuni NCTC 11168 [6]; about pH 10): became inactive | Antimicrobial activity after treatment (C. jejuni NCTC 11168 [6]): retained it | Stability at different values of pH (C. jejuni NCTC 11168 [6]; pH about 3.0 to about 9.0): stable | MICs (Sh. dysenteriae): 0.4 µg/mL | Inhibiting activity in Spot Test (C. jejuni NCTC 11168 [7]): 12,800 AU/ml | Inhibiting Activity, Spot Test (C. jejuni NCTC 11168 [7]): 12,800 AU/ml | MICs (E. coli C600): 0.1 µg/mL | Inhibiting Activity measured by IEF (S. enteritidis 204 [8]): band 1 | Inhibiting Activity IEF (S. enteritidis 204 [8]): +Band 1 | Inhibiting Activity measured by IEF (E. coli O157:H7 904 [9]): band 1 | Inhibiting Activity IEF (E. coli O157:H7 904 [9]): +Band 1 | MICs (S. typhimurium 383/60): 0.1 µg/mL | MICs (C. jejuni L4; C. jejuni L-4): 0.2 µg/mL | MICs (Morganella morganii): 3.2 µg/mL | Activity AU/ml (C. jejuni; [14]): 12,800 AU/ml | Specific Activity AU/mg (C. jejuni; [14]): 320,000 AU/mg | Activity AU/ml (C. jejuni; [15]): 3,200 AU/ml | Specific Activity AU/mg (C. jejuni; [15]): 213,333 AU/mg | Inhibiting Activity measured by IEF (C. jejuni NCTC 11168 [10]): band 1 | Inhibiting Activity IEF (C. jejuni NCTC 11168 [10]): +Band 1 | MICs (E. coli O157:H7 Y-63): 0.1 µg/mL | MICs (Citrobacter freundi): 0.1 µg/mL | MICs (Y. pseudotuberculosis; Y. pseudotuberculosis): 0.4 µg/mL | MICs [11]: 3.2 µg/mL | MICs (E. coli O157:H7 G-3): 0.1 µg/mL | MICs (S. gallinarum pullorum): 0.1 µg/mL | MICs (Staphylococcus aureus): 0.4 µg/mL | Inhibiting Activity measured by SDS-PAGE (C. jejuni NCTC 11168 [12]): M.W. 3.9 kDa | Inhibiting Activity SDS-PAGE (C. jejuni NCTC 11168 [12]): +Band 1 | MICs (S. enteritidis 204 [13]): 0.2 µg/mL

B1: Bacteriocin 760: bacteriocin produced by Enterococcus durans/faecium/hirae NRRL B-30745 (strain 760); amino acid sequence SEQ ID NO 2 (protein, listed as Streptococcus cricetus)
chain: NRWYCNSAAGGVGGAAVCGLAGYVGEAKENIAGEVRKGWGMAGGFTHNKACKSFPGSGWASG
IEF (pI) [1]: 9.5 | IEF (pI) ([1]; isolated by Method A): 9.5 | IEF (pI) ([1]; isolated by Method B): 9.5 | pI of the band with antimicrobial activity [1]: about 9.5 | Antimicrobial activity after treatment (C. jejuni NCTC 11168 [2]; treated with beta-chymotrypsin): lost their antimicrobial activity | Antimicrobial activity after treatment (C. jejuni NCTC 11168 [2]; treated with lipase): retained it | Antimicrobial activity after treatment (C. jejuni NCTC 11168 [2]; treated with lysozyme): retained it | Antimicrobial activity after treatment (C. jejuni NCTC 11168 [2]; treated with papain): lost their antimicrobial activity | Antimicrobial activity after treatment (C. jejuni NCTC 11168 [2]; treated with proteinase K): lost their antimicrobial activity | Inhibiting Activity measured by SDS-PAGE (S. enteritidis 204 [3]): M.W. 5.5 kDa | Inhibiting Activity SDS-PAGE (S. enteritidis 204 [3]): +Band 1 | Inhibiting Activity measured by SDS-PAGE (E. coli O157:H7 904 [4]): M.W. 5.5 kDa | Inhibiting Activity SDS-PAGE (E. coli O157:H7 904 [4]): +Band 1 | Inhibiting activity in Spot Test (S. enteritidis 204 [5]): 12,800 AU/ml | Inhibiting Activity, Spot Test (S. enteritidis 204 [5]): 12,800 AU/ml | Activity UE/ml (Campylobacter jejuni; isolated by Method A): 12,800 UE/ml | Specific Activity UE/ml (Campylobacter jejuni; isolated by Method A): 71,111 | Activity UE/ml (Campylobacter jejuni; isolated by Method B): 51,200 UE/ml | Specific Activity UE/ml (Campylobacter jejuni; isolated by Method B): 284,444 | MIC (E. coli O157:H7 lab. 39): 1600 µg/mL | MIC (Klebsiella pneumoniae): 3200 µg/mL | MIC (E. coli O157:H7 OD-3): 1600 µg/mL | MIC (S. choleraesuis 434/4): 400 µg/mL | MIC (S. choleraesuis 370): 400 µg/mL | Stability at different values of pH (C. jejuni NCTC 11168 [6]; about pH 10): became inactive | Antimicrobial activity after treatment (C. jejuni NCTC 11168 [6]): retained it | Stability at different values of pH (C. jejuni NCTC 11168 [6]; pH about 3.0 to about 9.0): stable | MIC (Sh. dysenteriae): 100 µg/mL | Inhibiting activity in Spot Test (C. jejuni NCTC 11168 [7]): 51,200 AU/ml | Inhibiting Activity, Spot Test (C. jejuni NCTC 11168 [7]): 51,200 AU/ml | MIC (E. coli C600): 100 µg/mL | Inhibiting Activity measured by IEF (S. enteritidis 204 [8]): band 1 | Inhibiting Activity IEF (S. enteritidis 204 [8]): +Band 1 | Inhibiting Activity measured by IEF (E. coli O157:H7 904 [9]): band 1 | Inhibiting Activity IEF (E. coli O157:H7 904 [9]): +Band 1 | MIC (S. typhimurium 383/60): 400 µg/mL | MIC (C. jejuni L4; C. jejuni L4): 100 µg/mL | MIC (Morganella morganii): 3200 µg/mL | Specific Activity AU/mg (C. jejuni): 160,000 AU/mg and 284,444 AU/mg | Inhibiting Activity measured by IEF (C. jejuni NCTC 11168 [10]): band 1 | Inhibiting Activity IEF (C. jejuni NCTC 11168 [10]): +Band 1 | MIC (E. coli O157:H7 Y-63): 1600 µg/mL | MIC (Citrobacter freundi): 1600 µg/mL | MIC (Y. pseudotuberculosis): 3200 µg/mL | MIC [11]: 400 µg/mL | MIC (E. coli O157:H7 G-3): 1600 µg/mL | MIC (S. gallinarum pullorum): 400 µg/mL | MIC (Staphylococcus aureus): 1600 µg/mL | Inhibiting Activity measured by SDS-PAGE (C. jejuni NCTC 11168 [12]): M.W. 5.5 kDa | Inhibiting Activity SDS-PAGE (C. jejuni NCTC 11168 [12]): +Band 1 | MIC (S. enteritidis 204 [13]): 200 µg/mL
